The source of these data is the MegaScale stability set (Tsuboyama et al. 2023).

The chains are these.
B1: HHH_rd2_0155 (parent)
chain: PPDDERKKAEKAARSGNEEKAREILERLGYSEDEARELAKRLR
B2: HEEH_KT_rd6_0007 (parent)
chain: SIEEEIKKAEEAKEKGKTFIHGDFVATTEELLDELLKRLRKKL

Variants of B1 are the subject of one data set. The data set can be described thus: folding stability dG (cDNA display proteolysis); higher = more stable. To be noted: PBS, room temperature.
As for PPDDERKKAEKAARSGNEEKAREILERLGYSEDEARELAKRLQ [R43Q], the “folding stability dG” value is 1.45 kcal/mol.

For PPDDERKKAEKAARSGNEEKAREILERLGYSEDEARELAKRLS [R43S], the “folding stability dG” value was determined as 1.85 kcal/mol.

As to PPDDERKKAEKAARSGNEEKAREILERLGYSEDEARELAKRLY [R43Y], the “folding stability dG” value worked out at 2.39 kcal/mol.

As to PPDDERKKAEKAARSGNEEKAREILERLGYSEDEARELAKRLW [R43W], the “folding stability dG” value was found to be 2.31 kcal/mol.

For the variant PPDDERKKAEKAARSGNEEKAREILERLGYSEDEARELAKRLV [R43V], the “folding stability dG” value is 1.77 kcal/mol.

In the case of PPDDERKKAEKAARSGNEEKAREILERLGYSEDEARELAKRLT [R43T], the “folding stability dG” value was 1.5 kcal/mol.

Variants of B2 are the subject of a further data set. The description is as above. To be noted: PBS, room temperature.
As to SIEEENKKAEEAKEKGKTFIHGDFVATTEELLDELLKRLRKKL [I6N], the “folding stability dG” value was 0.587 kcal/mol.

For the variant SIEEERKKAEEAKEKGKTFIHGDFVATTEELLDELLKRLRKKL [I6R], the “folding stability dG” value was 0.719 kcal/mol.

Consider SIEEEYKKAEEAKEKGKTFIHGDFVATTEELLDELLKRLRKKL [I6Y], for which the “folding stability dG” value was determined as 0.676 kcal/mol.

As to SIEEEAKKAEEAKEKGKTFIHGDFVATTEELLDELLKRLRKKL [I6A], the “folding stability dG” value came out at 0.662 kcal/mol.

Consider SIEEEEKKAEEAKEKGKTFIHGDFVATTEELLDELLKRLRKKL [I6E], for which the “folding stability dG” value is 0.593 kcal/mol.

As for SIEEEPKKAEEAKEKGKTFIHGDFVATTEELLDELLKRLRKKL [I6P], the “folding stability dG” value came to 0.487 kcal/mol.

SIEEEWKKAEEAKEKGKTFIHGDFVATTEELLDELLKRLRKKL [I6W]: the “folding stability dG” value was found to be 0.615 kcal/mol.

On to SIEEELKKAEEAKEKGKTFIHGDFVATTEELLDELLKRLRKKL [I6L], for which the “folding stability dG” value was 1.04 kcal/mol.

With SIEEEFKKAEEAKEKGKTFIHGDFVATTEELLDELLKRLRKKL [I6F], the “folding stability dG” value was 0.542 kcal/mol.

Consider SIEEEVKKAEEAKEKGKTFIHGDFVATTEELLDELLKRLRKKL [I6V], for which the “folding stability dG” value was determined as 0.729 kcal/mol.

For the variant SIEEEGKKAEEAKEKGKTFIHGDFVATTEELLDELLKRLRKKL [I6G], the “folding stability dG” value was 0.684 kcal/mol.

For the variant SIEEEMKKAEEAKEKGKTFIHGDFVATTEELLDELLKRLRKKL [I6M], the “folding stability dG” value is 0.782 kcal/mol.

Regarding SIEEESKKAEEAKEKGKTFIHGDFVATTEELLDELLKRLRKKL [I6S], the “folding stability dG” value worked out at 0.742 kcal/mol.

As to SIEEEDKKAEEAKEKGKTFIHGDFVATTEELLDELLKRLRKKL [I6D], the “folding stability dG” value worked out at 0.648 kcal/mol.

For the variant SIEEEKKKAEEAKEKGKTFIHGDFVATTEELLDELLKRLRKKL [I6K], the “folding stability dG” value amounted to 0.651 kcal/mol.

In the case of SIEEEHKKAEEAKEKGKTFIHGDFVATTEELLDELLKRLRKKL [I6H], the “folding stability dG” value came out at 0.603 kcal/mol.

As to SIEEEQKKAEEAKEKGKTFIHGDFVATTEELLDELLKRLRKKL [I6Q], the “folding stability dG” value is 0.793 kcal/mol.

As for SIEEETKKAEEAKEKGKTFIHGDFVATTEELLDELLKRLRKKL [I6T], the “folding stability dG” value was found to be 0.576 kcal/mol.

SIETEIKKAEEAKEKGKTFIHGDFVATTEELLDELLKRLRKKL [E4T]: the “folding stability dG” value was 0.909 kcal/mol.

For SIEKEIKKAEEAKEKGKTFIHGDFVATTEELLDELLKRLRKKL [E4K], the “folding stability dG” value worked out at 1 kcal/mol.

In the case of SIEYEIKKAEEAKEKGKTFIHGDFVATTEELLDELLKRLRKKL [E4Y], the “folding stability dG” value is 1.06 kcal/mol.

On to SIEFEIKKAEEAKEKGKTFIHGDFVATTEELLDELLKRLRKKL [E4F], for which the “folding stability dG” value is 1.03 kcal/mol.

Regarding SIEAEIKKAEEAKEKGKTFIHGDFVATTEELLDELLKRLRKKL [E4A], the “folding stability dG” value was found to be 1.25 kcal/mol.

On to SIECEIKKAEEAKEKGKTFIHGDFVATTEELLDELLKRLRKKL [E4C], for which the “folding stability dG” value is 1.78 kcal/mol.

With SIEVEIKKAEEAKEKGKTFIHGDFVATTEELLDELLKRLRKKL [E4V], the “folding stability dG” value is 0.909 kcal/mol.

SIEDEIKKAEEAKEKGKTFIHGDFVATTEELLDELLKRLRKKL [E4D]: the “folding stability dG” value turned out to be 1.27 kcal/mol.

In the case of SIEREIKKAEEAKEKGKTFIHGDFVATTEELLDELLKRLRKKL [E4R], the “folding stability dG” value came out at 1.07 kcal/mol.

On to SIEGEIKKAEEAKEKGKTFIHGDFVATTEELLDELLKRLRKKL [E4G], for which the “folding stability dG” value was determined as 0.862 kcal/mol.

For SIELEIKKAEEAKEKGKTFIHGDFVATTEELLDELLKRLRKKL [E4L], the “folding stability dG” value came to 1.21 kcal/mol.

As to SIEPEIKKAEEAKEKGKTFIHGDFVATTEELLDELLKRLRKKL [E4P], the “folding stability dG” value stood at 0.777 kcal/mol.

For the variant SIEMEIKKAEEAKEKGKTFIHGDFVATTEELLDELLKRLRKKL [E4M], the “folding stability dG” value was determined as 1.26 kcal/mol.

As to SIEHEIKKAEEAKEKGKTFIHGDFVATTEELLDELLKRLRKKL [E4H], the “folding stability dG” value is 1.06 kcal/mol.

In the case of SIEIEIKKAEEAKEKGKTFIHGDFVATTEELLDELLKRLRKKL [E4I], the “folding stability dG” value came out at 1.03 kcal/mol.

For SIESEIKKAEEAKEKGKTFIHGDFVATTEELLDELLKRLRKKL [E4S], the “folding stability dG” value came out at 1.12 kcal/mol.

As to SIEQEIKKAEEAKEKGKTFIHGDFVATTEELLDELLKRLRKKL [E4Q], the “folding stability dG” value amounted to 1.11 kcal/mol.

SIENEIKKAEEAKEKGKTFIHGDFVATTEELLDELLKRLRKKL [E4N]: the “folding stability dG” value was determined as 1.02 kcal/mol.

As for SIEWEIKKAEEAKEKGKTFIHGDFVATTEELLDELLKRLRKKL [E4W], the “folding stability dG” value turned out to be 1.27 kcal/mol.

For the variant SIEEEICKAEEAKEKGKTFIHGDFVATTEELLDELLKRLRKKL [K7C], the “folding stability dG” value was found to be 1.38 kcal/mol.

For the variant SIEEEIAKAEEAKEKGKTFIHGDFVATTEELLDELLKRLRKKL [K7A], the “folding stability dG” value was determined as 1.31 kcal/mol.

For the variant SIEEEIDKAEEAKEKGKTFIHGDFVATTEELLDELLKRLRKKL [K7D], the “folding stability dG” value was determined as 0.626 kcal/mol.

With SIEELIKKAEEAKEKGKTFIHGDFVATTEELLDELLKRLRKKL [E5L], the “folding stability dG” value was found to be 2.35 kcal/mol.

In the case of SIEEWIKKAEEAKEKGKTFIHGDFVATTEELLDELLKRLRKKL [E5W], the “folding stability dG” value came to 2.01 kcal/mol.

For the variant SIEEDIKKAEEAKEKGKTFIHGDFVATTEELLDELLKRLRKKL [E5D], the “folding stability dG” value is 1.23 kcal/mol.

Turning to SIEEGIKKAEEAKEKGKTFIHGDFVATTEELLDELLKRLRKKL [E5G], the “folding stability dG” value turned out to be 0.897 kcal/mol.

SIEEVIKKAEEAKEKGKTFIHGDFVATTEELLDELLKRLRKKL [E5V]: the “folding stability dG” value came out at 2.13 kcal/mol.

Take SIEEAIKKAEEAKEKGKTFIHGDFVATTEELLDELLKRLRKKL [E5A]: the “folding stability dG” value worked out at 2.05 kcal/mol.

Consider SIEERIKKAEEAKEKGKTFIHGDFVATTEELLDELLKRLRKKL [E5R], for which the “folding stability dG” value stood at 1.09 kcal/mol.

On to SIEEPIKKAEEAKEKGKTFIHGDFVATTEELLDELLKRLRKKL [E5P], for which the “folding stability dG” value is 0.677 kcal/mol.

As to SIEEMIKKAEEAKEKGKTFIHGDFVATTEELLDELLKRLRKKL [E5M], the “folding stability dG” value worked out at 2.05 kcal/mol.

On to SIEEQIKKAEEAKEKGKTFIHGDFVATTEELLDELLKRLRKKL [E5Q], for which the “folding stability dG” value is 1.61 kcal/mol.

Consider SIEEFIKKAEEAKEKGKTFIHGDFVATTEELLDELLKRLRKKL [E5F], for which the “folding stability dG” value worked out at 1.74 kcal/mol.

Consider SIEEHIKKAEEAKEKGKTFIHGDFVATTEELLDELLKRLRKKL [E5H], for which the “folding stability dG” value is 1.11 kcal/mol.

In the case of SIEEYIKKAEEAKEKGKTFIHGDFVATTEELLDELLKRLRKKL [E5Y], the “folding stability dG” value was 1.56 kcal/mol.
